Experimental data as given in article PMC10978878 (Nature Communications, 2024).

B1: SD1-1 Fab (Fab, V domains shown)
VH: QVQLVESGPGLVKPSETLSLTCSVSGGSIDNFYWSWIRQPPGKGLEWIGNIYYGGSGNYNPSLKSRVTISVDTSKNQVSLKLRSVTAADTAVYYCARDSVWYTGSYGLIYWGPGTLVTVSS
VL: SVVTQPASVSGSPGQSITISCTGTSSDVGSYNLVSWFQQHPGKAPKLMIYEVTKRPSGISNRFSGSKSGNTASLTISRLQAEDEADYYCCSYAGSSTVVFGGGTKLTVL
B2: SD1-2 Fab (Fab, V domains shown)
VH: QVQLVQSGPGLVKPSQTLSLTCSVSGDSISSGTYYWSWIRLPAGQGLEWIGRVHSSGSTSYNPSLKSRVTISVDTSKNNFSLKLSSVTAADTAVYYCVRLDNCSAGYCHAFDIWGQGTMVTVSS
VL: QSVLTQPASVSGSPGQSITISCTGTSSDVGSYNLVSWYQQHPGKAPKVMIYEVSKWPSGVSNRFSGSKSGNTASLTISGLQAEDEADYYCCSYAGSGTYVFGTGTKVTVL
B3: SD1-3 Fab (Fab, V domains shown)
VH: QVQLVESGGGLVQPGGSLRLSCTASGVTFSSYAMSWVRQAPGKGLEWVSGISGSGDSTYYADSVKGRFTISRDNSKNTLYLQMNSLRVEDTAVYYCATHYCSGGSCPFDYWGQGTLVTVSS
VL: PSALTQPPSVSVSPGQTASITCSGDKLGNKYAYWYQQKPGQSPVLVIFQDTMRPSGIPERFSASNSGNTATLTISGTQSIDEADYYCQAWDSNTAVFGGGTKLTVL

Key:
[1] = molecular target: BA.4 spike, recombinant trimeric S-twin-Strep, prefusion stabilized (SARS-CoV-2, UniProt P0DTC2); assay: cryo-EM structure; settings: both partners purified
[2] = molecular target: BA.2.12.1 spike, recombinant trimer that retains the native sequence (SARS-CoV-2, UniProt P0DTC2); assay: cryo-EM structure; settings: both partners purified

Binder | stoichiometry N [1] [Fab per spike trimer] | stoichiometry N [2] [Fab per spike trimer]
B1 | 3 | 
B2 |  | 3
B3 |  | 3
